This passage reports interaction score results from publication PMC10397247.

Common to all, as to test: two-hybrid library CCNG1;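 note: natural log of median RNA to DNA barcode read ratio; higher means stronger binding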
For one assay, the target named is T1, 4H2143-bN.
T1 chain: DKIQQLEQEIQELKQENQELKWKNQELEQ
The conditions noted are these: mean of both orientations.

A further assay concerns the target T2, 4H2915-bN.
T2 chain: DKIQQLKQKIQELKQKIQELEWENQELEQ

The target in another assay is T3, 4H477-bN.
T3 chain: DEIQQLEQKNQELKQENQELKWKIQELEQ

In another assay the target is T4, 4H741-bN.
T4 chain: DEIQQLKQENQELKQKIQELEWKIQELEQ

The next assay has as its target T5, 4H2503-bN.
T5 chain: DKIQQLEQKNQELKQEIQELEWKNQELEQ

The next assay deals with T6, 4H2438-bN.
T6 chain: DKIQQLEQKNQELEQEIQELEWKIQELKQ

The target in a further assay is T7, 4H2839-bN.
T7 chain: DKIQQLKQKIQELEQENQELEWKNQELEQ

In another assay the target is T8, 4H2692-bN.
T8 chain: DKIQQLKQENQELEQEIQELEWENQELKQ

The target of another assay is T9, 4H2588-bN.
T9 chain: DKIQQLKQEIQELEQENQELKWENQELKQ

The target of a further assay is T10, 4H40-bN.
T10 chain: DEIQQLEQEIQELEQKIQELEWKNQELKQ

The next assay has as its target T11, 4H3277-bN.
T11 chain: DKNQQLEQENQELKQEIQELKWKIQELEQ

For another assay, the target named is T12, 4H319-bN.
T12 chain: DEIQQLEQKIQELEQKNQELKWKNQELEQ

The target of another assay is T13, 4H2717-bN.
T13 chain: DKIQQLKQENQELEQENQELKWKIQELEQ

A further assay deals with T14, 4H2223-bN.
T14 chain: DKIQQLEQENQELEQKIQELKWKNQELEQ

The target of another assay is T15, 4H348-bN.
T15 chain: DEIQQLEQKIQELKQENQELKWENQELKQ

The target in a further assay is T16, 4H492-bN.
T16 chain: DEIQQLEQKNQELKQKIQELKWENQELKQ

In the next assay the target is T17, 4H2473-bN.
T17 chain: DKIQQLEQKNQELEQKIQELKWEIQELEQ

A further assay addresses T18, 4H2134-bN.
T18 chain: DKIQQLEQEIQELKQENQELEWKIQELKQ

A further assay addresses T19, 4H3057-bN.
T19 chain: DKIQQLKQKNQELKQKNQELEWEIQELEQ

In the next assay the target is T20, O6-bS.
T20 chain: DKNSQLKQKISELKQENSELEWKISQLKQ

The target in a further assay is T21, O15-bS.
T21 chain: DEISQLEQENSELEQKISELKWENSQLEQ

The next assay deals with T22, O4-bS.
T22 chain: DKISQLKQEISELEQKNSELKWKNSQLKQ

In a further assay the target is T23, O2-bS.
T23 chain: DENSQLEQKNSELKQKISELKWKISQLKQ

The target of the next assay is T24, O12-bS.
T24 chain: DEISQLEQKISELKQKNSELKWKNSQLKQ

The next assay concerns the target T25, O5-bS.
T25 chain: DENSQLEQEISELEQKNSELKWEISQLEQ

Another assay addresses T26, O7-bS.
T26 chain: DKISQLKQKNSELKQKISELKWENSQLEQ

A further assay deals with T27, O9-bS.
T27 chain: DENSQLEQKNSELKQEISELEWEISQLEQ

The next assay has as its target T28, O3-bS.
T28 chain: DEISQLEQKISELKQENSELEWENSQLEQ

A further assay addresses T29, O13-bS.
T29 chain: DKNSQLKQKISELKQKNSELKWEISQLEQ

The target of another assay is T30, O16-bS.
T30 chain: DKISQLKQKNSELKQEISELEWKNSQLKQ

The target in a further assay is T31, O10-bS.
T31 chain: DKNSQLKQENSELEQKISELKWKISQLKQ
The conditions noted are these: mean of both orientations.

For the next assay, the target named is T32, O8-bS.
T32 chain: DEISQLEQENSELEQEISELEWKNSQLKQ

The target of another assay is T33, O11-bS.
T33 chain: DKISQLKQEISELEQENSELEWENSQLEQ

In the next assay the target is T34, 4H797-bN.
T34 chain: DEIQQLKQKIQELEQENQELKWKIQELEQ

Another assay concerns the target T35, 4H454-bN.
T35 chain: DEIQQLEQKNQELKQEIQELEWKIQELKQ

A further assay addresses T36, 4H4001-bN.
T36 chain: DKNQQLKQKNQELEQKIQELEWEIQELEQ

The target of another assay is T37, 4H568-bN.
T37 chain: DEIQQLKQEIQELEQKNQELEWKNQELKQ

In the next assay the target is T38, 4H2667-bN.
T38 chain: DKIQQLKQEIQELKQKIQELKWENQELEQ

A further assay concerns the target T39, 4H3427-bN.
T39 chain: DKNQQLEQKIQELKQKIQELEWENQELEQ

For the next assay, the target named is T40, 4H338-bN.
T40 chain: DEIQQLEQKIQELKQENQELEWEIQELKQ

The target of the next assay is T41, 4H754-bN.
T41 chain: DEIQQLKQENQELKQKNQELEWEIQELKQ

The target of the next assay is T42, 4H1845-bN.
T42 chain: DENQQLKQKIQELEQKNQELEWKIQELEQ

Another assay addresses T43, 4H2729-bN.
T43 chain: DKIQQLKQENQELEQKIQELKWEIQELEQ

For the next assay, the target named is T44, 4H953-bN.
T44 chain: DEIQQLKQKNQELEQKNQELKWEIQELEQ

The next assay has as its target T45, 4H3185-bN.
T45 chain: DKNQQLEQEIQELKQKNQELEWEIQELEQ

For a further assay, the target named is T46, 4H3782-bN.
T46 chain: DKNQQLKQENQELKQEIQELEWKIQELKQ

Another assay addresses T47, 4H3855-bN.
T47 chain: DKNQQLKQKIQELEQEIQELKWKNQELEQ

A further assay has as its target T48, 4H2576-bN.
T48 chain: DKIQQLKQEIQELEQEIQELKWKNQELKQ

Another assay deals with T49, 4H607-bN.
T49 chain: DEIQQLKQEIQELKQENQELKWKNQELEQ

The target of another assay is T50, 4H687-bN.
T50 chain: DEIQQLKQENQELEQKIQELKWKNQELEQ

The target in a further assay is T51, 4H717-bN.
T51 chain: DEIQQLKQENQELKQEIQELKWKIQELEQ

The target in a further assay is T52, 4H918-bN.
T52 chain: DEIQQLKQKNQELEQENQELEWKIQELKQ

A further assay deals with T53, 4H883-bN.
T53 chain: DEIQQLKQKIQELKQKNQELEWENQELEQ

The next assay has as its target T54, 4H331-bN.
T54 chain: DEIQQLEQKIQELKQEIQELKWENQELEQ

Another assay deals with T55, 4H967-bN.
T55 chain: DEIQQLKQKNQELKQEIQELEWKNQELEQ

The next assay deals with T56, 4H3354-bN.
T56 chain: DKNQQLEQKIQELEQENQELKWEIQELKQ

In a further assay the target is T57, 4H72-bN.
T57 chain: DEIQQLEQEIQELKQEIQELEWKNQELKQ

A further assay deals with T58, 4H2442-bN.
T58 chain: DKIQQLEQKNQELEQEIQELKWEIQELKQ

In the next assay the target is T59, 4H2697-bN.
T59 chain: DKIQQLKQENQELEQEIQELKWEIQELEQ

For another assay, the target named is T60, 4H1828-bN.
T60 chain: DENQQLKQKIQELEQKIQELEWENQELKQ

For another assay, the target named is T61, 4H908-bN.
T61 chain: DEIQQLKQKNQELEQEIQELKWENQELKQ

Another assay addresses T62, 4H3112-bN.
T62 chain: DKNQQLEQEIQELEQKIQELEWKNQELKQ

Another assay addresses T63, 4H2618-bN.
T63 chain: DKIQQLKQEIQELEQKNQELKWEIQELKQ

For the next assay, the target named is T64, O14-bS.
T64 chain: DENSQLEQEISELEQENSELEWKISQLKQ

Read-outs that look alike come from different tables or passages of the source.

DKIQQLEQEIQELKQENQELEWKIQELKQ [4H2134-bN]: the interaction score with 4H2143-bN is 0.912; with 4H2915-bN it was -1.35; in the assay with 4H477-bN it was 0.581; in the assay with 4H741-bN, 0.14; with 4H2503-bN, -0.659; with 4H2438-bN, 0.477. Besides, the interaction score with 4H2839-bN was 0.142; in the assay with 4H2692-bN, 0.473; in the assay with 4H2588-bN, -0.119; with 4H40-bN it was -0.166; in the assay with 4H3277-bN it was -0.911; with 4H319-bN, 0.833. In addition, the interaction score in the assay with 4H2717-bN is -0.26; with 4H2223-bN it was -0.162; with 4H348-bN it was -0.138; with 4H492-bN, -1.68; with 4H2473-bN, 0.214; in the assay with 4H2134-bN it was 1.45. This molecule returned an interaction score with 4H3057-bN of 0.93.
As for DKNSQLKQENSELEQKISELKWKISQLKQ [O10-bS], the interaction score is -0.631 with O6-bS; 0.0876 in the assay with O15-bS; -0.565 with O4-bS; -1.55 with O2-bS; -2.63 with O12-bS; -1.67 in the assay with O5-bS. The interaction score in the assay with O7-bS is -0.783; in the assay with O9-bS (mean of both orientations), 0.492; in the assay with O3-bS, -0.954; with O13-bS, -0.797; in the assay with O16-bS it was -0.405; with O10-bS, -1.52. Besides, the figures for the interaction score with O8-bS and with O11-bS were -1.24 and -2, respectively.
As to DENQQLKQKIQELEQKIQELEWENQELKQ [4H1828-bN], the interaction score was -1.07 with 4H797-bN; -1.22 with 4H454-bN; -0.709 in the assay with 4H4001-bN; -0.67 with 4H568-bN; 1.18 in the assay with 4H2667-bN; -0.728 in the assay with 4H3427-bN. Further, the interaction score with 4H338-bN is -0.738; with 4H754-bN, -2.15; with 4H1845-bN, -0.541; in the assay with 4H2729-bN, -0.165; with 4H953-bN, -0.334; in the assay with 4H3185-bN, -0.135. The interaction score with 4H3782-bN is 0.26; with 4H3855-bN it was 0.0633; in the assay with 4H2576-bN it was 1.52; in the assay with 4H607-bN, -0.0859; in the assay with 4H687-bN it was -0.773; in the assay with 4H717-bN it was -0.318. Moreover, the interaction score in the assay with 4H918-bN was -1.16; in the assay with 4H883-bN it was -0.284; in the assay with 4H331-bN, 0.0332; in the assay with 4H967-bN, -0.704; with 4H3354-bN, -1.74; with 4H72-bN it was 0.18. Further, the interaction score was -0.746 with 4H2442-bN; -0.202 with 4H2697-bN; 1.19 in the assay with 4H1828-bN; -1.28 with 4H908-bN; 0.443 with 4H3112-bN; 0.00935 with 4H2618-bN.
Take DKISQLKQEISELEQENSELEWENSQLEQ [O11-bS]: the interaction score with O6-bS was -0.902; with O15-bS it was -0.753; with O4-bS, 0.272; with O2-bS, -0.471; with O12-bS it was 1.88; in the assay with O5-bS, -2.35. In addition, the interaction score with O7-bS was -1.17; with O9-bS, -2.56; with O3-bS, -1.25; with O13-bS it was -0.61; with O16-bS it was -0.701; in the assay with O14-bS, -2.92. The interaction score with O8-bS was -3.31; with O11-bS, -1.25.
